Assay: soluble on expression in E. coli; label from the status in PepcDB or PDB records

Sequence | soluble on expression in E. coli
MATAPYGVRLLVGAATVAVEETMKLPRTILMYPMTLASQAAHVVMRFQQGLAELVIKGDNTLETLFPPKDEKPEWATFDEDLPDALEGTSIPLLGLSDASEAKNDDRRSDGRFALYSVSDTPETTTASRSADRSTNPKTAKHPKSAAKPTVPTPAVAAELDYPALTLAQLRARLHTLDVPELEALLAYEQATKARAPFQTLLANRITRATAK | not soluble
MGSDKIHHHHHHMIQQKVRVGLLGVGLDTYWGQFEGLLPRLLTYQDEIAAKIEAMDVQVINTGMVDSPLKANECVLQLKQADVELVFLFISTYALSSTILPVAQQVGKPIIILNIQPASAIDYQKLNSMGDRGRMTGEWLAHCQACSVPEFASVLNRAGVRYDIITGYLSEDYVWEEIASWVDAVRVMYGMRTSRLGVLGHYYCGMLDVYTDLMKQSAVFGTHIELLEMCELKAYREEVSDGELKRKLDEFYDKFNVEASCSSEELVRAARTSVALDKLVNVHQLGAMAYYYEGFCGNDYENIVTSVIAGNTLLTGYGIPVAGECEVKNAQAMKIMSLLKAGGSFSEFYAMDFKDDIVLLGHDGPAHFAIAEEKVKLVPLPLYHGKPGKGLSIQMSVKPGDVTLLSVCEGRDGVFLLAAEGEAVQGETLHIGNTNSRYRFPCGARRFMDQWSKAGPSHHCAIGIGHKVSELKKLAFLLDIPIIVVE | not soluble
MGSDKIHHHHHHMHLELRHLRTIRAIHQAGGLARAADVLHMTQSALSHQVKGLEDQAGIELFVRRSKPLKLSAAGIRLLRLAERILPEIDALEDEFRALRSGRTGRLHIAIECHACFEWLFPVLELFRHAWPEIDVDIRAGLAFEALPALMREEVDLVISSDPVTVEGMVFNPLFDYHPTFVAAASNPLAAREFISAEDFRDQMLITYPVSRDRLDVFTEVLTPAKVEPRGTRQVELTAVILMLVASNRGVSVLPDWVLRDVRSHADYVTRPLGPKTVTKRLYAATRTEDATKPFMAHFLRLGRSEPVKLQRA | not soluble
MSLENKIIFVAGACGRIGKALCEKILLSKGIPILADINKECLNKLQENLETNFKTKLLSLELDITKQESLQTALQKSQERYGKIDAFVNSSYPFGKDWGKTPYYELKYEQICESLNLHLAGFMLAAQEFVKFFKQQGYGNIINLSSIMGVYAPKFENYEGTSMQSSLEYSVIKAGINHMSSWLAKELFNQNIRVNTLASGGILDNQNELFLKAYRKCCASKGMLDADDICGTLVFLLSDESKFITGQTLVVDDGWGLEGHHHHHH | soluble
MIHRPTAKENAKRFASVIQALHACETACAYCATECGKNGHAEAMGRCVSLCTDCARFCALARDFLERNSEFAELLLEDCAEICQQTMEECVHHAEGHCRKCAEACEQCKKACLEVAGAAPLSSAQQKELLAALLEHHHHHH | not soluble
MELVHGISTHFIQSKKFKTNKITVRFTAPLSLDTIAGHMLSASMLETANQMYPTSQDLRRHLASLYGTDMSTNCFRRGQSHIIELTFTYVRDEFLSRKNVLTSQILELVKETLFSPVVVDNGFDPALFEIEKKQLLASLAADMDDSFYFAHKELDKLFFHDERLQLEYSDLRNRILAETPQSSYSCFQEFLANDRIDFFFLGDFNEVEIQNVLESFGFKGRKGDVKVQYCQPYSNILQEGMVRKNVGQSILELGYHYCSKYGDEQHLPMIVMNGLLGGFAHSKLFTNVRENAGLAYTISSELDLFSGFLRMYAGINRENRNQARKMMNNQLLDLKKGYFTEFELNQTKEMIRWSLLLSQDNQSSLIERAYQNALFGKSSADFKSWIAKLEQIDKDAICRVANNVKLQAIYFMEGIE | not soluble
MSLSKQISNLNSSSNKPKILSLFSGCGGLDLGFHQAGCETVWANDFSHWACESFRKNIGDVIVEGDIEQINPNDPTIPDCDIILGGFPCQDFSMIWKQPGLEGERGNLYKSFLRFVNAKKPKVFVAENVKGLLTANKKKAIQQIITDFENCGYYVQAKLYNFAEFGVPQFRERVLIVGVRLDTGFDFRHPEPTHNETGENGLKPYVTAGQAISNIPQNASNNELLKISDKTRRMLELIPEGGNFTDIPKDHPLYVKGMISHVYRRMHRNEPSKTIIAAGGGGTWGYHFPEPRAFTNRERARLQSFPDDFEFVGSTTEVRRQIGNAVPPQGVVELAKSILPIFSDNYEKVDLHEKLVEEKEILFHDRLSKIRGGKEGHHHHHH | soluble
MAHHHHHHMQYINDEGYRIDGRKNDECRLIKISLGNGNELIDVDGFSFFEIGNTKLFAYIQGPNEYRRPDEKCLVKCNVFLSPFNILEKKRKKSKDNVTREISSYIRNICNHIILLDLYKNSEINIFLYIIERDGGLKAAAVNTCILALIDAGIAIKYFISASSVLYLQNNIIVDGNQFEVNSGSPELTLAIDMSSNNIVLLEFDAEVPIDIFQSMLKTCAQACIHVGNIMKLSIKENAIKLLSLNSILNT | not soluble
MSLAQTLGYIYRKRMIDSIEEFSRQIETTYQINKFWDNFEQIREVQNTKIDKVKEKQQKLMERLSSLYDKVEGQKEMGSMNNSNISAAESEWFAEIKRSVIEFNSYVRKASTNHQELEFIKEQQAQIANQKPDISSENGKEWNDLQQLLREGHHHHHH | soluble
MNKQPGQQPLRSLSLTSAAKSPEEVEPEQDSKKGEPRAKAAGFGGGGGGGKRLPEARSTPMVIPNQVAAMPVQMTGFVQLVANNILSAIAHTNSVMVVQCIKPLEIFTGFETPNRYVVHDMYCRPLLYCMERSNIFARQYEGNDRNFGMQIMDTHGAQVMTCFRGRPCCSTDDFLSTQFLDQQIGMMKKECCNPNFELVGSGCNQPLLIQSPGCAGCGGTQKFPVMTFNGVLVGEIVRLYPGFMQEMFTDADTYIVHFPMDMPPILKLLLVTSVFLIDFTYFEDRNQDQHRNGGMHSGMHSSF | not soluble
MLDLIQTRRDLHQIPEIGLEEFKTQAYLLDVIEKLTTGKDFVQIRTWRTGILVYLQGSQPERTIGWRTDIDGLPIVEQTGLPFASQHQGRMHACVHDFHMTIALGCLERALEEQPKNNLLFLFQPAEENEAGGMLMYEDGAFGDWLPDQFYGLHVRPDLKVGQIATNTHTLFAGTCEVKIRFKGKGGHAAFPHEANDALVAASYFVTQVQSVVSRNVNPIEGAVVTFGVFQAGTTNNVITDTAFLHGTIRALTQDMSLLVQKRVKTVAEGVAAAFDMEVEVELKQGGYLPVENNPALARELMDFFDEKDGIELIDIEPAMTGEDFGYLLSKVDGVMFWLGIDSPYALHHPQMSPKEEVLAIGVAAVSSFLKKKAAE | soluble
MPHTSSDVADFKEVRHIRGDINLKPFIAIWEVTRACGLVCQHCRADAQHEPHPEQLTTEQGKQLLSDLASYERPKPLVVLTGGDPFERQDLEELVDYGTSLGLNVSLSPSVTPRLTPERIHRLYELGGKAMSMSLDGATAETHDAFRGFSGTFDTTVKRAADILQAGFRLQINSTLTKSNIREAPALLKTVMGMGAKMWYVFFLVPTGRGAALNALNPQEREDVLHWLADVSDRIAIKTTEAPQYRRVVIQQRLRKEGQLDKYQGGELYRYLTQKTTELLGAHPVQPRRPRPPMAVNSGSGFVFIDHIGDVYPSGFLPIHCGNVKQASIKTIYSQSPTFQALRDPNHWHGKCSVCEFHDVCGGSRSTAYALTGDVRASDPTCVYMPQPWLDAGHSGVED | not soluble
MWTVTKIRADYEGWWLFSDWPENIVEKYQYQDFDDMFKHYQQLINQCKVQFDNYVTGKYNIYAFYNNCDMNYCEDCEEDLQIFYSFIVLQNNEVYYKLPIIDLEHHHHHH | soluble
MEAEPLETEQDEWRKERMRVLDEWCEIELKGADALKMDVTREPGSPTVAVAPETSLQDLYPLLIATSSSNAPPSATPTDDVTDPEVQVVSRESIDNRSTFNRIIDVCLCRPVKSQMGPKAYTDKTLILKLAQIPYDHENGTHWLLLSDYFNNVSRSLMTSSEYSHVTNPSRVGAHWVTVGFQSATPHTDFRGCGVLGLLQMHTFTQRVPANLLRAIVLLATTEPNDFPLAVVSINITSILLTQLKKGALDNFGNEIEGLYPFFSALHASAMCRFCSIYKSQKCTLANTQTIFSEITRQLEKSPLSLIMLLNPTNDELINTLL | not soluble
MNAAEVIVYEHVNFGGKSFDATSDQPGAGDNLNDKISSIKVKSGTWRFYEYINYGGRYWDLGPGEYSSVESAGIPDNSISSFRQI | soluble
EEKYVTVQPYTSQSKDEIGFEKGVTVEVIRKNLEGWWYIRYLGKEGWAPASYLKKAKD | soluble
MSLTQHTRNFSFKVLTINTHKGFTAFNKRFILPELRDAVRTVGADIVCLQEVMGAHEVHPLHIENWPDTTHYEFLADTMWSDFAYGRNAVYPEGHHGNAVLSRYPIEHYENRDVSVGGSEKRGVLYCRITPPMLNRPIHVMCVHLGLRESHRQAQLTMLAGWVNALPESEPVLVAGDFNDWRQKAGPPLNAAGLEEIFTRAHGRPARTFPVSMPLLRLDRIYVKNANASSPTALPLRNWRHLSDHAPLSAEIHLEGHHHHHH | soluble
MGSVITKETVLQENIYLKKLSGLEPVDDYDPFWNKLLSFSLKFDDDDEDTRIALESALDDHLQCLMYNTQTTGNFAAFIRLFLRRATELKTSEQCENKIYLWQTSNALLILRYIARFLTQRMTEKEFVRIFAKSHESTETESSSTSSSSDEEDDDEQKSENENNNGATKYIPIVFQNTAEEFTYELVSILINISVNETTLAIHVEAVRCLLTLLSSQLYNESIVNTSIVFRFFIDGSCAKHAASLTKTLLLNYLIHNSEYHMTVQKPQESIVFGLASSMWSMVQMATGIDSAEEEKKPPLTLGNLSILLLLNLSCHQPLNSSNPFKETLALFQNAQEVSTLPTQIVSFKIDYNGLYERLCATAGQEPPMLLLYMLLQANSGFRNYVLSRINLENLVVPVLRILHDGVATSNNSHHVYLALIVALILSEDDIFCKIIHETMIKDLGWLDSDFSVREISLGGLTTLVLVRAIQKNALKTRDRYLHTNCLAALANMSAFFKNLAPIVCQRLISLLDLLTKRHAKMVDHMRVSSQNDVADGQPINFHDDITALEEGIRTLLEIINSALCGGLRHNSHLIYNLLYHRALFDAYVQHPMFQDLLVNIAAVISHFSSKVIHVPAGDGSTMLQIIEKEANIWPTDRLAKFPELKFRYVEDEYTVDFFVPYVWRLSVQHSGIYFETSRIKIFNAQSIA | not soluble
MGSDKIHHHHHHMKFLPLIAMCLFLTGCVGDRSDLELFVTTTKAQHVAHIPPLKEPPRFEHFAYQAELMRSPFVPPSRELTEEVVDTSKDCLQPDLKRRKGRLETYPLDNLKMRGTLSEADTTWALVETNDGSVYRMGTGEYLGLFNGRISKVTSQNVEVVELIPDGSGCWSERTSNLELSGE | not soluble
MSRRASKRPAPYPLLCEQKPEDLLVAPVEHKVYQDFEPKRPREFSPVMAQSLPPGEIDFQPSKIIFNAPYNENQESKIKLINTSALRIAYGINTYMKRLRVDTMCTPNCGVLDPSEEILLTISCDAFAFGQVDTTNDRITVEWTNTSEGSTKQFCRDWLDGDGMVRRKTLPIEYSSSPIAQTSSAPLLQASKHGMWLPIGFAASELYDYAKGEPLDRKTCEKNLEKLIKNDRDVDYYEWLNFAKRCRTQNQNLMEEMALGMAFTTAMANKQHRKISRKAEKITEPITTNKAFSIDSAEKFDRALTLPSRKWFMISDVVTDGDVSNWSTANLVTLVRALARTVFDKVAIADPHMMCYATSQNASTYIPIARDFFEGFAEYILGGFGEEQSRDLKFRVRKLVTDVMGNKLDRVRGRHNKMYGNEASEDATRWLREQLRKEDGELKESRLIFPNGSEMMCNYQVNEENPEGSIKSEIFNDEEEVEME | not soluble

From the DeepSol protein solubility set
